Assay results as given in the supplement of paper PMC10126150.
± gives the standard deviation of the averaged measurements.

The sequences below were run on ATP (assay: switch fluorescence ratio, 500 uM ATP over buffer (Cy3 cluster intensity, sum of 5 cycles each) (fold (ratio)); higher = stronger signal-on switching upon ATP binding; sequences stand for … in TCGTCGGCAGCGTCAGATGTGTATAAGAGACAGTTTTTTTTTTTTTTTTTTTTTTTTT…TC). Settings: aptamer strand: ATP DNA aptamer (quencher-CACCTGGGGGAGTATTGCGGAGGAAGG + anchor), 100 nM annealed; ATP concentration: 500 uM.
Procedure, shortened: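 Five buffer/ATP imaging cycles were run on Cy3-labelled switching-strand clusters on a modified Illumina MiSeq flow-cell, with NaOH stripping and re-annealing between cycles. In each cycle, clusters annealed to 100 nM quencher-labelled ATP aptamer were imaged in selection buffer, then after 15 min with 500 uM ATP at 22 °C. Per cluster, the fluorescence ratio is summed target-cycle over summed buffer-cycle Cy3 intensity, averaged per switch-domain sequence. Only clusters within 100-1000 RFU were kept.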
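Also: ATP exposure 15 min at 22 °C before imaging.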

| Sequence | switch fluorescence ratio |
| --- | --- |
| AGTATGAGTT | 0.9737 ± 0.0017 |
| TCGCAGGATA | 1.08 ± 0.012 |
| ACGGTAGTGC | 1.04 ± 0.022 |
| GTTTTAGTCC | 1.01 ± 0.025 |
| TTTCGAGGAA | 1.03 ± 0.019 |
| TATGTCTACA | 0.9859 ± 0.0075 |
| GGCTCATTGG | 0.969 ± 0.025 |
| TAACGTGTTT | 1 ± 0.017 |
| TGTAAAGGGG | 1.01 ± 0.029 |
| TAAGAGGCAC | 0.996 ± 0.052 |
| GCGCAGACTT | 1.15 ± 0.034 |
| ACTTTCATGG | 1.01 ± 0.018 |
| TGGCAGGGGT | 1.56 ± 0.63 |
| AACTGGGGAA | 0.973 ± 0.016 |
| TAAGATGTAG | 0.9957 ± 0.0011 |
| GCGAGAGTGT | 0.99552 ± 0.00015 |
| TGGGTTGTGT | 0.988 ± 0.028 |
| CTAGAAGTAT | 1.024 ± 0.0033 |
| CGGGCCACTT | 1.008 ± 0.0076 |
| ACCGTATTTG | 1.119 ± 0.0047 |
| AAGGTTTGTA | 0.9899 ± 0.0068 |
| TAAGAGGGCT | 0.996 ± 0.022 |
| CATGATACGG | 1.03 ± 0.011 |
| ACTTTGAATA | 0.988 ± 0.013 |
| AGAAAGCGTT | 1.02 ± 0.022 |

| Sequence | switch fluorescence ratio |
| --- | --- |
| TCTCAAGTGC | 1.118 ± 0.0083 |
| CGAAGTAGAG | 1.029 ± 0.0064 |
| AACTATTCGG | 0.9788 ± 0.0054 |
| TGGAAGCGTC | 1.02 ± 0.022 |
| TGCCTATTTC | 1.02 ± 0.017 |
| CGGTCATAAG | 0.982 ± 0.043 |
| AGCACTTACA | 1.35 ± 0.085 |
| AGATCGAGTT | 0.99 ± 0.041 |
| CGTAACGGGA | 1.037 ± 0.0076 |
| GGGTTAGGAA | 0.991 ± 0.022 |
| GATGTACAGT | 1.035 ± 0.0072 |
| TTTGGCGTGC | 1 ± 0.045 |
| CACGGGGGGA | 0.99 ± 0.033 |
| GTGTTAAGTT | 0.987 ± 0.034 |
| GACTTCCAGG | 1.05 ± 0.026 |
| TTAATTATAT | 1.02 ± 0.018 |
| ACCAAGTTGG | 0.993 ± 0.016 |
| GTCGTCTAAG | 0.973 ± 0.051 |
| TAACAAGGGT | 1 ± 0.016 |
| GGGATATTTG | 0.999 ± 0.036 |
| CGAGTTATTG | 1.08 ± 0.094 |
| TAGAGCAGCT | 1.03 ± 0.021 |
| GTGTTTAACC | 0.984 ± 0.021 |
| CGAGTATTAC | 1.09 ± 0.04 |
| TATGTAGGTA | 0.994 ± 0.047 |

| Sequence | switch fluorescence ratio |
| --- | --- |
| GGCATTTGGT | 0.993 ± 0.025 |
| CCGAGTTGTG | 1.05 ± 0.041 |
| ATGGAGAGGG | 0.987 ± 0.037 |
| GAAGGTGCGA | 1.15 ± 0.052 |
| ATTTATGGTA | 0.971 ± 0.014 |
| TTTCCACCGA | 1.14 ± 0.16 |
| GGTTGAAAAA | 0.985 ± 0.053 |
| GGGATATGGA | 1.04 ± 0.049 |
| ATAACGGAGT | 0.9902 ± 0.0087 |
| TAATTTGCAG | 0.9812 ± 0.0076 |
| TGAGTATTAG | 0.999 ± 0.033 |
| AGGTGTCTTG | 1.14 ± 0.074 |
| TATTTCCGGG | 1.012 ± 0.0045 |
| TGTTGTGAGG | 0.997 ± 0.025 |
| TGGCGGGGGA | 1.05 ± 0.042 |
| ATTATGATAT | 1.01 ± 0.015 |
| CGTATAGGAG | 1.02 ± 0.045 |
| ATATAAGAGC | 1.03 ± 0.02 |
| AGATAGAGCG | 1.01 ± 0.024 |
| TGCTAATAGT | 1.028 ± 0.0074 |
| ACCTGGCACA | 1.09 ± 0.012 |
| TTAAAGAGGC | 0.993 ± 0.032 |
| TCGAACCGAG | 1.2 ± 0.024 |
| TTACGGTGAA | 1.07 ± 0.072 |
| TAATTATAGT | 1.01 ± 0.011 |

| Sequence | switch fluorescence ratio |
| --- | --- |
| AATTCTGGAA | 0.982 ± 0.011 |
| GTGGAAAGGA | 0.991 ± 0.024 |
| TTAGTACATG | 0.976 ± 0.019 |
| GCGAGCGAAA | 0.982 ± 0.019 |
| ACTGCCGGTG | 1.25 ± 0.053 |
| CCAGGTGGGA | 3.53 ± 1.5 |
| GGGGGCGACT | 0.978 ± 0.021 |
| TTTTAGTATT | 0.9973 ± 0.0091 |
| GATACCGTGC | 1.18 ± 0.061 |
| TTTATGGACT | 1.03 ± 0.039 |
| GATTATAGTA | 0.952 ± 0.027 |
| ATCTAGGGTC | 1.01 ± 0.031 |
| TAGATTCGCT | 0.993 ± 0.039 |
| CGGCCATCGG | 0.9978 ± 0.0049 |
| GCGTCTATGA | 1 ± 0.016 |
| GGGTCAAGCG | 0.943 ± 0.017 |
| ACGGTTCCAT | 0.97 ± 0.057 |
| AGCTAGGTAA | 1.01 ± 0.029 |
| TTTGGGTATG | 0.992 ± 0.026 |
| TAATCGATAT | 0.9803 ± 0.0026 |
| ATGGGGAGCG | 0.992 ± 0.031 |
| TTTCACAGTA | 1.03 ± 0.03 |
| GAAGGGATTG | 1.02 ± 0.041 |
| GGAAATTGTA | 0.986 ± 0.0059 |
| TTCACAAGG | 1.0218 ± 0.00034 |

| Sequence | switch fluorescence ratio |
| --- | --- |
| GCTTGTAGGC | 0.994 ± 0.017 |
| CTTCAGTTAC | 1.82 ± 0.19 |
| GATTTGCGGG | 0.9833 ± 0.0069 |
| GTTCGGGGTT | 1.014 ± 0.0016 |
| ACTGTGAATT | 1.02 ± 0.011 |
| ATGATATCTC | 1.02 ± 0.047 |
| ATTCATTGGG | 0.9872 ± 0.0075 |
| TTTCACTTGT | 1.034 ± 0.0018 |
| TGCAGGAATT | 1.09 ± 0.17 |
| AGGGGTAAGT | 0.981 ± 0.011 |
| GCCGTGCGGG | 0.978 ± 0.03 |
| ACACAGCGGC | 1.16 ± 0.046 |
| TTTACGGTGC | 1.25 ± 0.15 |
| GTTTATTAAA | 1.04 ± 0.012 |
| GGGGCCTTGG | 1.01 ± 0.022 |
| TCGGTGGAGA | 1.01 ± 0.024 |
| CCGGGGTCGA | 1.57 ± 0.77 |
| CTTACTAGC | 1.02 ± 0.029 |
| GGGGGTTGGT | 0.996 ± 0.026 |
| TTAAGTGCTA | 0.9897 ± 0.0067 |
| ACAGAATCGG | 1.03 ± 0.018 |
| TAGGAGTAAG | 1.01 ± 0.03 |
| TAATGGGGAG | 0.993 ± 0.014 |
| AGGGAGTTAT | 1 ± 0.0014 |
| TCTGGTATGG | 0.994 ± 0.0034 |

| Sequence | switch fluorescence ratio |
| --- | --- |
| AGTTGGTGTT | 0.958 ± 0.026 |
| AGGGTTGGAG | 1.003 ± 0.0042 |
| TACTCGCTGG | 1.07 ± 0.036 |
| GCTCTGAGCT | 1.05 ± 0.086 |
| CGGGCGGGTG | 1.03 ± 0.017 |
| TAATTAGGGG | 1.06 ± 0.083 |
| TAGAAGTTTG | 0.976 ± 0.026 |
| TTTCTGCTTT | 1.04 ± 0.057 |
| TCATAGTTTT | 1.01 ± 0.042 |
| CCTGGTGCAT | 2.15 ± 0.056 |
| TTTGGGGTTC | 1.02 ± 0.044 |
| ATTTGGAATT | 1 ± 0.027 |
| TATAGTCTTC | 0.959 ± 0.027 |
| CTGTAATTGT | 0.98817 ± 0.00075 |
| GGACGGTATG | 1.02 ± 0.031 |
| ATGGGACGTT | 0.983 ± 0.037 |
| TTTAGCAGAG | 1.16 ± 0.28 |
| TGAATGGGGA | 1.01 ± 0.029 |
| AGTGGTTGTA | 0.997 ± 0.024 |
| GGGTGGTTTT | 1.01 ± 0.035 |
| TTGGAATAGA | 0.999 ± 0.05 |
| CAGGGGGTAG | 1.01 ± 0.027 |
| AGTGGATGGG | 0.9858 ± 0.0031 |
| CGGGGGGTAG | 0.995 ± 0.035 |
| AGTTTTATTG | 0.993 ± 0.026 |

| Sequence | switch fluorescence ratio |
| --- | --- |
| AATGCTTTGG | 1.007 ± 0.0095 |
| TTATAAGGGA | 0.977 ± 0.049 |
| AACCGCGCTT | 1.18 ± 0.083 |
| AGGGGCTTAT | 1.01 ± 0.014 |
| GTTGTCAGGG | 0.982 ± 0.012 |
| ACATATGGGT | 1.01 ± 0.039 |
| TTTTCAATTG | 1.01 ± 0.027 |
| ACTTGTTCAT | 1.01 ± 0.033 |
| TTTCTTCAAA | 0.997 ± 0.02 |
| TTATTAATAC | 1.177 ± 0.0012 |
| AATGGCTGTG | 0.972 ± 0.033 |
| AAATACGCTC | 1.25 ± 0.2 |
| TAGAAGGGCA | 0.988 ± 0.015 |
| ATCTTTGGTA | 0.9826 ± 0.0074 |
| CGGAAGGAAG | 0.946 ± 0.036 |
| TAGTTGGTCT | 0.974 ± 0.028 |
| ACCGATCTCA | 1.048 ± 0.0089 |
| TGTTTTTTGG | 0.991 ± 0.033 |
| AGTACTGGCA | 1.04 ± 0.061 |
| TTGTGGGTTT | 1.05 ± 0.2 |
| GAAGATGAAA | 0.984 ± 0.017 |
| TGTTTAAATA | 1.033 ± 0.0035 |
| CCTAGGTCAT | 1.12 ± 0.15 |
| CAGGGGGTAT | 0.997 ± 0.026 |
| ATTATTGACT | 1.04 ± 0.014 |

| Sequence | switch fluorescence ratio |
| --- | --- |
| CGATTAGGTG | 1.193 ± 0.0052 |
| AGATTACCTT | 1.06 ± 0.017 |
| CACCGGGATG | 1.31 ± 0.099 |
| GATTCGTGAC | 1.03 ± 0.052 |
| CTCCATATGT | 1.039 ± 0.0016 |
| TGAGGAATTC | 1 ± 0.017 |
| CGTTCAGTGG | 1.031 ± 0.0083 |
| TATCTTTCTT | 1.06 ± 0.019 |
| TGCTTCCGAA | 1.52 ± 0.082 |
| CGGGGTATTT | 1 ± 0.022 |
| CATAATGGTG | 1.02 ± 0.013 |
| TATGTTAGTG | 1.01 ± 0.042 |
| GGGGGGTAGA | 1.02 ± 0.043 |
| TTGTTCGGAG | 1.0006 ± 0.00036 |
| TCTGTCTCTG | 1.01 ± 0.014 |
| AGCAAGTTGT | 1.03 ± 0.011 |
| GCGGAAAAAC | 1.02 ± 0.058 |
| CTAATACTTG | 0.9791 ± 0.0024 |
| TCGAGTAAAA | 0.9902 ± 0.0039 |
| CGGGTCTATT | 0.9649 ± 0.001 |
| TATATTAGCT | 1.01 ± 0.026 |
| TAGGCTGAAA | 0.9906 ± 0.0024 |
| CATCGTGACT | 0.994 ± 0.028 |
| GTGGATTGTG | 0.971 ± 0.067 |
| GCTATTATAC | 1.47 ± 0.0019 |
